Data on two substances can be found in publication PMC5469476.

For orientation: Kd means a measure of binding affinity in units of concentration. A high value points to a looser complex.

The target in assay [1] is human glucagon-like peptide-1 receptor (GLP1R) with C-terminal 1D4 epitope, purified in nanodiscs (GLP1R-ND) (human) (UniProt P43220).
Assay [2] shares this target. Description: fluorescence polarisation; fluorescence anisotropy; 50 nM FAM-labeled peptide with 0 to 400 nM freshly prepared GLP1R-ND (or empty-ND); 20 mM Tris-HCl pH 7.4, 150 mM NaCl, EDTA, 3 mM MgCl2; room temperature; single-site binding model; three independent receptor preparations. (In general: In fluorescence polarisation assays a small probe gives low polarisation when free and higher when bound to something large.)

Assay [3] has the same target. The assay can be described thus: fluorescence polarisation.

UniProt P43220, sequence (P43220 24-463): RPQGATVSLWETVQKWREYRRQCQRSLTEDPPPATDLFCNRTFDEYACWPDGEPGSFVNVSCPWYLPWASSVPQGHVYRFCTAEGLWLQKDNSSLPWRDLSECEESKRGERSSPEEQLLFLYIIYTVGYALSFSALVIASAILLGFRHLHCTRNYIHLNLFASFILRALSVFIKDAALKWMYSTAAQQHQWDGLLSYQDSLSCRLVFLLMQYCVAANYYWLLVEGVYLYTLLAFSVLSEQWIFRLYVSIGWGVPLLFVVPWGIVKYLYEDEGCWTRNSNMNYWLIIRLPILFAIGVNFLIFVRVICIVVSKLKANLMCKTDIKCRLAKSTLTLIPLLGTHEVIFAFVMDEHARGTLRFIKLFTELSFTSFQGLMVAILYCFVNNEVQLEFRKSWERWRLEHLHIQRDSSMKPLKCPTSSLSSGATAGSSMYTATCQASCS

“FAM-labeled GLP-1-(7-37) (E21K, 5(6)-carboxyfluorescein on the lysine) (peptide)” yielded an EC50 of cell-based cAMP assay (receptor on cells, details in S1 Supporting Information) in assay [1] of 1.18 nM. This substance had a Kd in assay [2] of 284 nM.

Substance “FAM-labeled exendin-4 (L21K, 5(6)-carboxyfluorescein on the lysine) (peptide)” had a Kd in assay [3] of 178 nM.
